The values below come from patent US4829052A, “Serine protease inhibitors” (Monsanto Company, priority 1987, dated 1989).

“Also recorded” adds a separate entry of the source.

In experiment [1] the target is T1, bovine trypsin (Bos taurus, UniProt P00760).
T1 sequence (P00760 24-246): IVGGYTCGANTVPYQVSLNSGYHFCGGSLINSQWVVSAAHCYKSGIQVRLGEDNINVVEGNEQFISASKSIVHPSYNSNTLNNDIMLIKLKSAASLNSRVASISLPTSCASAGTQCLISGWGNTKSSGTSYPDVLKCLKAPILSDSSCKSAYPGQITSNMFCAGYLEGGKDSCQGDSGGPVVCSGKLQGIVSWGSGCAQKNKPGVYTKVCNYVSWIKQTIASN
Nature of the experiment: Trypsin assay (spectrophotometric, N-Benzoyl-L-arginine p-nitroanilide substrate). In kind it is biochemical. The settings on record: inhibitor/protease ratio between about 10/1 and 50/1. The method, then: (§1) The inhibitory activity of the polypeptides of the present invention can be easily assayed using in vitro assays. In these types of spectrophotometric assays the activity of the serine protease is measured toward an appropriate p-nitroanilide substrate in the presence and absence of the peptide inhibitor. The enzyme catalyzed hydrolysis of the peptide p-nitroanilide substrate produces p-nitroanaline which results in an increase in absorbance which is monitored in the range of 405 to 410 nm. The rate of increase in absorbance is a measure of the enzymatic activity and the decrease in this rate relative to a suitable control is used to ascertain inhibition. The general assay procedure and details of the particular assays employed in the examples are provided in the Appendix following the examples. It is also possible to test the polypeptides in a functionally oriented assay that emulates in vivo conditions. Such an inhibition assay for elastase is also described in the Appendix.
(§2) Generalized Protocol Spectrophotometric Assays:
(§3) (1) Pipette 100 μl of enzyme solution into a disposable polystyrene cuvette (1 cm optical path length).
(§4) (2) Add (1900-X) μl of bufferto the cuvette, where X is the volume of test solution in microliters that is added in the next step.
(§5) Add X μl of test solution to the cuvette, where X ranges from 0 μl for the control to a maximum of about 500 μl. Incubate the solution for a period of 1 to 5 minutes at ambient temperature.
(§6) (4) Add 100 μl of substrate solution to the cuvette. Mix the contents by covering the cuvette with a piece of paraffin film and repeatedly inverting for a period of 5 to 15 seconds.
(§7) (5) Record the change in absorbance for about 5 minutes at either 405 or 410 nm, depending on the assay, with a spectrophotometer equipped with a suitable recording device.
(§8) The percent inhibition is calculated from the formula [formula] where (ΔA/min) is the initial rate of absorbance change.
(§9) (7) For more accurate quantitative determinations temperature control of the cuvette holders and the reagent solutions can be instituted.
(§10) (8) The test solution can be crude oxidized peptide prepared as described above, fractions from a chromatographic separation or purified polypeptides.
(A) Buffer Solution - Triethanolamine buffer consisting of 200 mM triethanolamine, 20 mM CaCl2, pH 7.8
(B) Substrate solution - Dissolve 50 mg of N-Benzoyl-L-arginine p-nitroanilide in 50 ml of water. Sonicate for 5 to 10 minutes to completely dissolve the solid material.
(C) Enzyme solution - Dissolve 1 mg of bovine trypsin in 10 ml of 0.001N HCl stored on ice during the assay.
(§11) (D) Test Solution - See general protocol, number 8.
(§12) Procedure: Use the above solutions in the general protocol described above.

Another experiment deals with T2, Human Sputum Elastase (Homo sapiens, UniProt P08246).
T2 construct: Human Sputum Elastase, product No. SE-563 EPC, Inc., Pacific, Mo; USA, Lot 85701; purchased EPC, Inc., Pacific, Mo; USA SE-563; host or cells: human sputum
T2 sequence (P08246 30-267): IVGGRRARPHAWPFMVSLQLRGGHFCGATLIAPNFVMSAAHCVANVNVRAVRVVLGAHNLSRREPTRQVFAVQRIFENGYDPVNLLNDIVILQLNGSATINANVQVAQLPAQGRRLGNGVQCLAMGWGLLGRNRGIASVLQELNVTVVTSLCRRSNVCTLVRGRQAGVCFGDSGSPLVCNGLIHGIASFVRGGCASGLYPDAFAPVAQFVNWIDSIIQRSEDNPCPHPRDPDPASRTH
Nature of the experiment: Elastase assay (spectrophotometric, p-nitroanilide substrate). In kind it is biochemical. The note with it: for Inhibitory Activity Elastase: inhibitor/protease ratio between about 10/1 and 50/1; for inhibition of human elastase (in words): text discussion of Table III. The method, then:
as §1, §2, §3, §4, §5, §6, §7, §8, §9, §10
(A) Buffer Solution - Tris-NaCl buffer consisting of 0.1M Tris-HCl pH 7.5 at 25° C. containing 0.5M NaCl and 0.01% (w/v) NaNs.
(B) Substrate Solution - Dissolve 45.5 mg of N-succinyl-L-alanyl-L-alanyl-L-alanine p-nitroanilide in 1 ml of 1-methyl-2-pyrrolidinone. Add 32 ml of Tris-NaCl buffer.
(C) Enzyme Solution - Human Sputum Elastase, product No. SE-563 EPC, Inc., Pacific, Mo. USA, Lot 85701. Dissolve 1 mg in 1 ml of Tris-NaCl buffer. Store on ice or at 4° C.
as §11, §12
(1) Buffer Solution - Tris-NaCl buffer -see Method 1.
(2) Substrate Solution - Dissolve 50 mg of 3-carbomethoxypropionyl-L-alanyl-L-alanyl-L-[…]-L-valine p-nitroanilidein 1 ml of 1-methyl-2-pyrrolidinone. Add 32 ml of Tris-NaCl buffer.
(3) Enzyme Solution - Human sputum elastase, product No. SE-563, EPC, inc. Pacific, Mo. USA, Lot 85071. Prepare a sample at a concentration of 0.01 mg per ml of Tris-NaCl buffer. Store on ice.
(4) Test Solution - general protocol, number 8.
Procedure: Use the above solutions in the general protocol.
(1) Porcine pancreatic elastase may be substituted for human elastase when it is desired to test for an inhibitor of the former.
(2) The activity of an elastase preparation can be calculated as [formula]
(3) The Tris-NaCl buffer also can be pH 8.0 with 0.03% sodium azide. Results should be compared at a single pH.

For experiment [2], the target named is T3, Human Sputum Cathepsin G (Homo sapiens, UniProt P08311).
T3 construct: Human Sputum Cathepsin G (Product No. SG-45, EPC, Inc., Pacific, Mo.); purchased EPC, Inc., Pacific, Mo; SG-45; host or cells: human sputum
T3 sequence (P08311 21-255): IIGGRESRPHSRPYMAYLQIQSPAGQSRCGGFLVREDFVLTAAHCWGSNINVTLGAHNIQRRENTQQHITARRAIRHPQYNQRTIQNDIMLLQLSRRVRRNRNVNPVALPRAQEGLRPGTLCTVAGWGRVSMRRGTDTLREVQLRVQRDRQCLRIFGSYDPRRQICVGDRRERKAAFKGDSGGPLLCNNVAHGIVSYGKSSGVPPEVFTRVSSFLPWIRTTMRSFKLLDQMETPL
Nature of the experiment: Cathepsin G assay (spectrophotometric, p-nitroanilide substrate). In kind it is biochemical. The note with it: inhibitor/protease ratio between about 10/1 and 50/1. The method, then: as §1, §2, §3, §4, §5, §6, §7, §8, §9, §10
(A) Buffer Solution - Tris-NaCl buffer consisting of 0.1M Tris-HCl, pH 8.0 containing 0.5M NaCl and 0.03% sodium azide.
(B) Substrate solution - Dissolve 50 mg of N-succinyl-L-alanyl-L-alanyl-L-prolyl-L-phenylalanine p-nitroanilide in 1 ml of 1-methyl-2-pyrrolidinone and dilute to 50 ml with Tris-NaCl buffer.
(C) Enzyme Solution - Human Sputum Cathepsin G (Product No. SG-45, EPC, Inc., Pacific, Mo.). Dissolve 1 mg of protein per 1 ml of Tris-NaCl buffer. Store on ice or at 4° C.
(D) Test Solutions - See the general protocol, number 8.
Procedure: Use the above solution in the general protocol described above. […]

Experiment [3] deals with T4, bovine chymotrypsin (Bos taurus, UniProt P00766). Nature of the experiment: Chymotrypsin assay (spectrophotometric, p-nitroanilide substrate). The note with it: inhibitor/protease ratio between about 10/1 and 50/1. In kind it is biochemical. The method, then:
as §1, §2, §3, §4, §5, §6, §7, §8, §9, §10
(A) Buffer solution - triethanolamine buffer- See trypsin assay.
(B) Substrate Solution - Dissolve 25 mg of 3-carbomethoxypropionyl-L-arginyl-L-prolyl-L-tyrosine p-nitroanilide (Product No. S-2586, KabiVitrum AB, Stockholm, Sweden) in 23.6 ml of water
(C) Enzyme solution - Dissolve 1 mg of bovine chymotrypsin in 4 ml of 0.001N HCl. Prepare the final dilution by combining 0.1 ml of the stock chymotrypsin solution and 10 ml of 0.001N HCl. Store on ice or at 4° C.
Procedure: Use the above solutions in the general protocol
(2) See note 1 of the cathepsin G assay.
(3) 0.1M Tris-HCl, pH 7.8, 20 mM CaCl2, 0.05% triton X-100 can be substituted for the triethanolamine buffer.

Experiment [4] deals with T1, bovine trypsin. The settings on record: stated for comparison, no test described; cited from earlier work.
Experiment [5] has as its target T3, Human Sputum Cathepsin G. The settings on record: stated for comparison, no test described; cited from earlier work.
Experiment [6] concerns the target T4, bovine chymotrypsin. The settings on record: stated for comparison, no test described; cited from earlier work.

Regarding “RVCPRILMKCKKDSDCLAECVCLEHGYC (RVCPRILMKCKKDSDCLAECVCLEHGYC) [Control, comparative control, reference compound]”, the “Inhibitory Activity Trypsin” value with bovine trypsin [1] is listed as “++ (Represents greater than 50% inhibition)”. Moreover, in the experiment with Human Sputum Elastase, the “Inhibitory Activity Elastase” value is “- (Represents less than 10% inhibition)”. Moreover, the “Inhibitory Activity Cathepsin G” value with Human Sputum Cathepsin G [2] was “- (Represents less than 10% inhibition)”. For the same substance, the “Inhibitory Activity Chymotrypsin” value with bovine chymotrypsin [3] is recorded as “- (Represents less than 10% inhibition)”.

“RVCPVALMKCKKDSDCLAECVCLEHGYCG (RVCPVALMKCKKDSDCLAECVCLEHGYCG) [Peptide 48]”: the “Inhibitory Activity Trypsin” value in the experiment with bovine trypsin [1] was “- (Represents less than 10% inhibition)”. For the same substance, in the experiment with Human Sputum Elastase, the “Inhibitory Activity Elastase” value is “+ (Represents between 10% and 50% inhibition)”; the “inhibition of human elastase (in words)” value was “continue to be inhibitors of human elastase”. For the same substance, the “Inhibitory Activity Cathepsin G” value in the experiment with Human Sputum Cathepsin G [2] is “- (Represents less than 10% inhibition)”. In the experiment with bovine chymotrypsin [3], the “Inhibitory Activity Chymotrypsin” value was “- (Represents less than 10% inhibition)”.

Consider “RVCPVILLKCKKDSDCLAECVCLEHGYCG (RVCPVILLKCKKDSDCLAECVCLEHGYCG) [Peptide 45]”, for which the “Inhibitory Activity Trypsin” value with bovine trypsin [1] is recorded as “- (Represents less than 10% inhibition)”. Also, in the experiment with Human Sputum Elastase, the “Inhibitory Activity Elastase” value is “++ (Represents greater than 50% inhibition)” and the “inhibition of human elastase (in words)” value is listed as “continue to be inhibitors of human elastase”. Also, in the experiment with Human Sputum Cathepsin G [2], the “Inhibitory Activity Cathepsin G” value is listed as “- (Represents less than 10% inhibition)”. In the experiment with bovine chymotrypsin [3], the “Inhibitory Activity Chymotrypsin” value is given as “- (Represents less than 10% inhibition)”.

For the substance “R V C P V I L Nle KCKKDSDCLAECVCLEHGYCG [Peptide 43]”, the “Inhibitory Activity Trypsin” value on bovine trypsin [1] is on record as “- (Represents less than 10% inhibition)”. The “Inhibitory Activity Elastase” value at Human Sputum Elastase was “++ (Represents greater than 50% inhibition)”. The “Inhibitory Activity Cathepsin G” value at Human Sputum Cathepsin G [2] is “- (Represents less than 10% inhibition)”. Also, the “Inhibitory Activity Chymotrypsin” value on bovine chymotrypsin [3] is on record as “- (Represents less than 10% inhibition)”.

“RVCPVSLMKCKKDSDCLAECVCLEHGYCG (RVCPVSLMKCKKDSDCLAECVCLEHGYCG) [Peptide 44]”: in the experiment with bovine trypsin [1], the “Inhibitory Activity Trypsin” value is given as “- (Represents less than 10% inhibition)”. The “Inhibitory Activity Elastase” value in the experiment with Human Sputum Elastase is listed as “++ (Represents greater than 50% inhibition)”. Moreover, in the experiment with Human Sputum Cathepsin G [2], the “Inhibitory Activity Cathepsin G” value was “- (Represents less than 10% inhibition)”. The “Inhibitory Activity Chymotrypsin” value with bovine chymotrypsin [3] was “- (Represents less than 10% inhibition)”.

“RVPCVALMKCKKDSDCLAECVCLEHGYCG (RVPCVALMKCKKDSDCLAECVCLEHGYCG) [Peptide 49]”: the “Inhibitory Activity Trypsin” value in the experiment with bovine trypsin [1] is on record as “- (Represents less than 10% inhibition)”. Moreover, in the experiment with Human Sputum Elastase, the “Inhibitory Activity Elastase” value is “+ (Represents between 10% and 50% inhibition)”; the “inhibition of human elastase (in words)” value is listed as “continue to be inhibitors of human elastase; also recorded: only marginal activity”. In the experiment with Human Sputum Cathepsin G [2], the “Inhibitory Activity Cathepsin G” value is listed as “- (Represents less than 10% inhibition)”. In the experiment with bovine chymotrypsin [3], the “Inhibitory Activity Chymotrypsin” value is given as “- (Represents less than 10% inhibition)”.

With “RVPCVILMKLKKDSDCLAECVCLEHGYCG (RVPCVILMKLKKDSDCLAECVCLEHGYCG) [Peptide 50]”, in the experiment with bovine trypsin [1], the “Inhibitory Activity Trypsin” value was “- (Represents less than 10% inhibition)”. Besides, in the experiment with Human Sputum Elastase, the “Inhibitory Activity Elastase” value is listed as “- (Represents less than 10% inhibition)” and the “inhibition of human elastase (in words)” value is reported as “only marginal activity”. In the experiment with Human Sputum Cathepsin G [2], the “Inhibitory Activity Cathepsin G” value is “- (Represents less than 10% inhibition)”. Moreover, in the experiment with bovine chymotrypsin [3], the “Inhibitory Activity Chymotrypsin” value is listed as “- (Represents less than 10% inhibition)”.

As for α-1-Proteinase inhibitor, the “inhibition of trypsin (in words)” value with bovine trypsin [4] was “inhibits all of these enzymes”. For the same substance, the “inhibition of cathepsin G (in words)” value in the experiment with Human Sputum Cathepsin G [5] was “inhibits all of these enzymes”. Moreover, in the experiment with bovine chymotrypsin [6], the “inhibition of chymotrypsin (in words)” value is “inhibits all of these enzymes”.
